From US6875599B2, “Mammalian secreted group III phospholipase A2” (Centre National de la Recherche Scientifique - CNRS, priority 2000, dated 2005)

Legend:
[1] = Initial rate of hydrolysis of small unilamellar vesicles of phosphatidylglycerol and phosphatidylcholine; assay type: biochemical, human; conditions: Q-Sepharose purified hGIII sPLA2; data not shown
Protocol: (§1) Studies to measure the initial rate of hydrolysis of small unilamellar vesicles of phosphatidylglycerol (1-palmitoyl-2-([9,10[^3H])-palmitoyl-sn-glycero-3-phosphoglycerol in 1-palmitoyl-2-oleoyl-sn-glycero-3-phosphoglycerol at 50 Ci/mol) and phosphatidylcholine (1-palmitoyl-2-([9,10[^3H])-palmitoyl-sn-glycero-3-phosphocholine, 50 Ci/mol) were carried as described (8) using Q-Sepharose purified hGIII sPLA2. Initial rates were calculated from 3 time points in the linear portion of the product versus time curve. pH-rate profiles for the hydrolysis of phosphatidylcholine were obtained as described (8). The Ca^2+ dependency of phospholipid hydrolysis was carried out with the fluorimetric assay (described above) with 10 μM EGTA (no Ca^2+) or with CaCl2 in excess of EGTA to give 10-650 μM Ca^2+.

[2] = pH-rate profile for the hydrolysis of phosphatidylcholine; assay type: biochemical, human; conditions: Q-Sepharose purified hGIII sPLA2
Text: as §1, with “FIG. 4 presents the enzymatic properties of hGIII sPLA2. A, Ca^2+ dependency of the hydrolysis of 1 -palmitoyl-2-(10-pyrenedecanoyl)-sn-glycerol-3- phosphomethanol vesicles by Q-sepharose purified hGIII sPLA2. B, pH dependency of the hydrolysis of phosphatidylcholne vesicles by Q-Sepharose purified gGIII sPLA2. Studies” for “Studies”

B1: hGIII sPLA2: novel human secreted group III phospholipase A2, SEQ ID No. 2, expressed recombinantly in COS cells and partially purified on Q-Sepharose (protein, listed as Homo sapiens)
chain: MGVQAGLFGMLGFLGVALGGSPALRWYRTSCHLTKAVPGNPLGYLSFLAKDAQGLALIHARWDAHRRLQACSWEDEPELTAAYGALCAHETAWGSFIHTPGPELQRALATLQSQWEACRALEESPAGARKKRAAGQSGVPGGGHQREKRGWTMPGTLWCGVGDSAGNSSELGVFQGPDLCCREHDRCPQNISPLQYNYGIRNYRFHTISHCDCDTRFQQCLQNQHDSISDIVGVAFFNVLEIPCFVLEEQEACVAWYWWGGCRMYGTVPLARLQPRTFYNASWSSRATSPTPSSRSPAPPKPRQKQHLRKGPPHQKGSKRPSKANTTALQDPMVSPRLDVAPTGLQGPQGGLKPQGARWVCRSFRRHLDQCEHQIGPREIEFQLLNSAQEPLFHCNCTRRLARFLRLHSPPEVTNMLWELLGTTCFKLAPPLDCVEGKNCSRDPRAIRVSARHLRRLQQRRHQLQDKGTDERQPWPSEPLRGPMSFYNQCLQLTQAARRPDRQQKSWSQ
Activity on anionic phosphatidylglycerol vesicles versus zwitterionic phosphatidylcholine vesicles, based on initial velocities [1]: 11 fold | pH of optimal activity on phosphatidylcholine vesicles [2]: 8 pH
